Assay results reported in patent US20180030149A1 (AVEO PHARMACEUTICALS, published 2018).
Like-named read-outs stand apart in the source and are kept apart here.

What was measured:
[1] = target: T1, recombinant human ErbB3 monomeric protein (cleaved rhErbB3) (human, UniProt P21860 20-643, limits assumed); experiment: SPR Biacore 37 C; antibody captured on anti-human Fc, cleaved rhErbB3 (monomer) injected
T1 construct: Monomer made by protease cleavage of the Fc fusion; also called Monomeric ErbB3

[2] = target: T1, recombinant human ErbB3 monomeric …; experiment: SPR Biacore 37 C; purified antibody captured on anti-human Fc, cleaved rhErbB3 0.3125-5.0 nM
Method: The analyses were performed at 37° C. using PBS (Invitrogen, Catalog No. 14040-133) containing 0.05% surfactant P20 (Biacore, Catalog No. BR-1000-54) as running buffer.
The antibodies were captured in individual flow cells at a flow rate of […]. Injection time was varied for each antibody to yield an Rₘₐₓ between 30 and 60 RU. […] The dissociation phase was monitored for up to 1200 seconds. The surface was then regenerated with two 60 second injections of Glycine pH 2.25 (made from Glycine pH 2.0 (Biacore, Catalog No. BR-1003-55) and pH 2.5 (Biacore, Catalog No. BR-1003-56)) at […].
The binding affinities and kinetics of certain purified monoclonal antibodies were also determined. To further characterize certain antibodies, the surface plasmon resonance experiments described above were conducted using concentrations of cleaved rhErbB3 between 0.3125 nM and 5.0 nM (a 2-fold serial dilution).

human ErbB3 [3] = target: T2, human ErbB3 (human, UniProt P21860 20-1342); experiment: cell-based or functional assay
[4] = target: T3, recombinant human ErbB3/Fc fusion protein (human, UniProt P21860 20-643); experiment: ECL (MSD) competition: rhErbB3/Fc coated on the plate, antibody dilutions, then NRG1-β1 at 0.25 µg/ml; bound NRG1-β1 detected
T3 construct: Bought (R&D Systems, Cat. No. 348-RB); the NRG1-α1 assay names Cat. No. 4518-RB instead; also called rhErbB3-Fc; rhErbB3/Fc; not shown: Fc portion of the bought fusion protein
Method: (§1) Multi-array 96-well standard binding plates (Meso Scale Discovery, Cat. No. L15XA-3) were coated with 50 μl of 0.5 μg/mL rhErbB3/Fc (R&D systems, Cat. No. 348-RB) in PBS (Invitrogen, Cat. No. 14040-133) for one hour at room temperature with no agitation. The plates then were washed three times with PBS+0.1% Tween20 (Sigma P5927) and blocked with 200 μl of 100% Horse Serum, heat inactivated (GIBCO, Cat. No. 26050-088) for 1.5 hours at room temperature. After washing the plates three times with PBS+0.1% Tween, 25 μl of the antibody dilutions were added to the plates for another hour at room temperature with agitation. […] The plates then were washed three times with PBS+0.1% Tween, and 150 μl of 1× read buffer (Meso Scale Discovery, Cat. No. R92TC-1) was added to each well before the plates were analyzed on a Sector® Imager 2400 (Meso Scale Discovery) instrument.

[5] = target: T3, recombinant human ErbB3/Fc fusion …; experiment: ECL competition; inhibition of NRG1-β1 binding to plate-coated rhErbB3/Fc
Method: as §1

[6] = target: T3, recombinant human ErbB3/Fc fusion …; experiment: SPR Biacore T100, 25 C; antibody captured on anti-mouse IgG, rhErbB3-Fc injected
Method: Rabbit anti-mouse IgGs (Biacore, Cat. No. BR-1008-38) were immobilized on carboxymethylated dextran CM4 sensor chips (Biacore, Cat. No. BR-1005-34) by amine coupling (BIAcore, Cat. No. BR-1000-50) using a standard coupling protocol according to vendor's instructions. The analyses were performed at 25° C., using PBS (Invitrogen, Cat. No. 14040-133) containing 0.05% surfactant P20 (Biacore, Cat. No. BR-1000-54) as running buffer.
The antibodies were captured in individual flow cells at a flow rate of 10 μl/minute. Injection time was varied for each antibody to yield an Rₘₐₓ between 30 and 60 RU. […] The dissociation phase was monitored for up to 3600 seconds. The surface was then regenerated with two 60-seconds injection of 10 mM Glycine-HCl, pH 1.7 (made from Glycine pH 1.5 (Biacore, Cat. No. BR-1003-54) and pH 2.0 (Biacore, Cat. No. BR-1003-55)) at a flow rate of […].
Kinetic parameters were determined using the kinetic function of the BIAevaluation software (Biacore) with double reference subtraction. Kinetic parameters for each antibody, kₐ (association rate constant), kd (dissociation rate constant) and KD (equilibrium dissociation constant) were determined.

[7] = target: T3, recombinant human ErbB3/Fc fusion …; experiment: ECL (MSD): NRG1-β1 (0.25 µg/ml) binding to plate-coated rhErbB3/Fc after antibody dilutions; the antibody enhances the NRG1-β1 signal
Method: MA2400 96-well standard binding plates (Meso Scale Discovery, Cat. No. L15XA-6) were coated with 50 μl of 0.5 μg/mL rhErbB3/Fc (R&D systems, Cat. No. 348-RB) in PBS (Invitrogen, Cat. No. 14040-133) for overnight at 4° C. with no agitation. The plates then were washed 3 times with PBS+0.1% Tween20 (Sigma P5927) and blocked with 200 μl of PBS containing 5% BSA (Sera Care Life Sciences, Cat. No. AP-4510-80) for 1.5 hour at room temperature. After washing the plates 3 times with PBS, 25 μl of the antibody dilutions were added to the plates for another hour at room temperature with agitation. […] The plates then were washed 3 times with PBS, and 150 μl of 1× read buffer (Meso Scale Discovery, Cat. No. R92TC-1) was added to each well before the plates were analyzed on a Sector® Imager 2400 (Meso Scale Discovery) instrument.

human ErbB3 [8] = target: T2, human ErbB3; experiment: cell-based or functional assay; remark: listed apart in the source
[9] = target: T3, recombinant human ErbB3/Fc fusion …; experiment: ECL (MSD) competition: rhErbB3/Fc coated on the plate, antibody dilutions, then NRG1-β1 at 0.25 µg/ml; bound NRG1-β1 detected; remark: listed apart in the source

B1: Sh24C05-31 N62S IgG1 (antibody)
heavy: not shown
light: DIQMTQSPSSLSASVGDRVTITCRASQEISGYLSWYQQKPGKAPKRLIYAASTLDSGVPSRFSGSGSGTEFTLTISSLQPEDFATYYCLQYDSYPYTFGQGTKLEIKRTVAAPSVFIFPPSDEQLKSGTASVVCLLNNFYPREAKVQWKVDNALQSGNSQESVTEQDSKDSTYSLSSTLTLSKADYEKHKVYACEVTHQGLSSPVTKSFNRGEC
notes: Humanized, human IgG1/kappa
[1]
  Kd: 0.076 nM
  koff: 0.00027 s⁻¹
  kon: 3.5e+06 M⁻¹ s⁻¹
[2]
  Kd: 0.076 nM
  koff: 0.00027 s⁻¹
  kon: 3.5e+06 M⁻¹ s⁻¹
Human ErbB3 [3]
  inhibition of phosphorylation of ErbB3 in exponentially growing SKBR-3 cells (ELISA): ≥ 50%
[4]
  IC50 (read off the curve): ~0.1 nM
[5]
  IC50: 0.124 nM

B2: 09D03 (antibody, mouse IgG2b, kappa, V domains shown)
VH: QVTLKESGPGILRPSQTLSLTCSFSGFSLSTFGLSVGWIRQPSGKGLEWLAHIWWDDDKYYNPALKSRLTISKDTSKNQVFLKIANVDTADTATYYCARIGADALPFDYWGQGTTLTVSS
VL: DIVLTQTAPSVPVTPGESVSISCRSSKSLLHSNGNTYLYWFLQRPGQSPQLLIYRMSNLASGVPDRFSGSGSGTAFTLRISRVEAEDVGVYYCMQHLEYPFTFGSGTKLEIKR
notes: Murine IgG2b/kappa, from hybridoma; also called anti-hErbB3 monoclonal antibody 09D03
[6]
  Kd: 0.08 nM
  koff: 2e-05 s⁻¹
  kon: 270000 M⁻¹ s⁻¹
Human ErbB3 [3]
  inhibition of NRG1-β1 induced phosphorylation of Akt in MCF7 and DU145 cells (ELISA): ≥ 80%
  inhibition of NRG1-β1 induced phosphorylation of ErbB3 in SKBR-3 cells (ELISA, 5 µg/ml antibody): ≥ 50%
[7]
  EC50 (read off the curve): ~1 nM
Human ErbB3 [8]
  IC50, NRG1-β1 dependent proliferation of MCF7 cells (MTT): 2.28 nM

B3: U1-53 (antibody, V domains shown)
VH: EVQLVESGGGLVQPGGSLRLSCAASGFTFSIYSMNWVRQAPGKGLEWVSYISSSSSTIYYADSVKGRFTISRDNAKNSLYLQMNSLRDEDTAVYYCARDRGDFDAFDIWGQGTMVTVSS
VL: DIQMTQSPSSLSASVGDRVTITCQASQDITNYLNWYQQKPGKAPKLLIYDASNLETGVPSRFSGSGSGTDFTFTISSLQPEDIATYNCQQCENFPITFGQGTRLEIK
[9]
  IC50 (read off the curve): ~0.1 nM
[5]
  IC50: 0.113 nM
